This is an account of results in patent US12098206B2, “PDGF receptor antibody and use thereof” (Seoul National University R&DB Foundation, priority 2018, dated 2024).

For one test, the target named is T1, mPDGFR-β and cotinine (Mus musculus, UniProt P05622).
T1 construct: mPDGFR-β
T1 sequence (P05622 32-530): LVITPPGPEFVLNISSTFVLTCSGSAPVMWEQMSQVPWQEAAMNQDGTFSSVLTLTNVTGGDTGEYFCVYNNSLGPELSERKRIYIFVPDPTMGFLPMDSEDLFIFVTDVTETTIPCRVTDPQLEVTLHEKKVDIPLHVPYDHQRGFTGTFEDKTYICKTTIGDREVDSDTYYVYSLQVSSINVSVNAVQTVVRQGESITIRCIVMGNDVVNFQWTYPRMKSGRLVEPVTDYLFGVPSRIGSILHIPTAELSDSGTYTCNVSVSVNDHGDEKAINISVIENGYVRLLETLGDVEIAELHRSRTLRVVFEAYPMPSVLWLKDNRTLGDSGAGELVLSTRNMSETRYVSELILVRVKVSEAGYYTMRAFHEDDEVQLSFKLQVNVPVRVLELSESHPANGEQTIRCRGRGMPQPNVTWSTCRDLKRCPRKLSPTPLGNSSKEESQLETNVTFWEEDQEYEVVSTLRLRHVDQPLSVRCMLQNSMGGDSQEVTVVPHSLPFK
Briefly: Enzyme immunoassay, simultaneous binding to cotinine and mPDGFR-β. The following applies: cotinine-BSA coated wells, then mPDGFR-β-Fc chimera; FIG. 3d. As to the method:
In order to confirm whether the bispecific antibody has simultaneous binding ability to both cotinine and mPDGFR-β, anti-mPDGFR-β x cotinine scFv-Cκ-scFv fusion protein was reacted in wells coated with cotinine-BSA. Washing was performed for each process, and mPDGFR-β-Fc chimeric protein and HRP-anti human Fc antibody were sequentially incubated.

The test system of another test is neovascularization. Briefly: Oxygen-induced retinal disease animal model. It is filed as in vivo, C57BL/6 mice. The following applies: complex with cot-duo; 1 uL into the vitreous cavity, 1 nM and 10 nM; FIG. 9. As to the method:
C57BL/6 mice on 7th day after birth were reared in a high-concentration oxygen (75%) chamber for 5 days, and transferred to a normal oxygen breeding facility on 12th day to create an environment for retinopathy of premature baby.
On the 14th day after birth, 1 uL of each bispecific antibody scFv-Cκ-scFv, and the complex of the bispecific antibody scFv-Cκ-scFv fusion protein and cot-duo were injected into the vitreous cavity at a concentration of 1 nM and 10 nM, respectively. To label blood vessels, isolectin B4-594 (1:100; 121413, Invitrogen) was treated on the retinal flat mount.

The subject of test [1] is MOLT-4 cells. As to the kind of experiment: Cytotoxicity in MOLT-4 cells not expressing mPDGFR-β. Type of test: cell-based. The following applies: complex with cot-duo; FIG. 7. As to the method: FIG. 7 is a graph confirming the cytotoxic ability of the bispecific antibody related to the anti-mPDGFR-β antibody and cot-duo complexes in the cells not expressing PDGFR-β. In FIG. 7a, MOLT-4 cells were reacted with the bispecific antibody and cot-duo complex (DAR4). The cellular ATP was measured to evaluate the relative cell viability. In FIG. 7b, MOLT-4 cells were reacted with the bispecific antibody and cot-duo complex (DAR2). The bispecific antibody anti-HER2 x cotinine scFv-Cκ-scFv was used as a negative control. DMSO was used as a vehicle control for cot-duo.

The target in another test is T2, mPDGFR-β (Mus musculus, UniProt P05622).
T2 construct: mPDGFR-β
T2 sequence (P05622 32-530): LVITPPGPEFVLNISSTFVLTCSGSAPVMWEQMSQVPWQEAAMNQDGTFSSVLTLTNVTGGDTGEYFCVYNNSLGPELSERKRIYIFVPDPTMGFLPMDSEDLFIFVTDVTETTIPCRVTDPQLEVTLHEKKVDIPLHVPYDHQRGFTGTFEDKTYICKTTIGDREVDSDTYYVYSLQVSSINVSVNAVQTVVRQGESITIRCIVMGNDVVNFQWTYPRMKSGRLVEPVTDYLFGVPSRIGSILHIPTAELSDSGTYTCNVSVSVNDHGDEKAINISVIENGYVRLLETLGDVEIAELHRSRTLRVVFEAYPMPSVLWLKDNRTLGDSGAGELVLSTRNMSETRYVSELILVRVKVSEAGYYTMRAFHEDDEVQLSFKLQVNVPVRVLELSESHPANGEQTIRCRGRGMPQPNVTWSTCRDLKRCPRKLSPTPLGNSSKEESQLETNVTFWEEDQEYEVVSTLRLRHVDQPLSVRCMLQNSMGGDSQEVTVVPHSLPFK
As to the kind of experiment: Competition enzyme immunoassay with mPDGF-BB. Type of test: binding. The following applies: mPDGF-BB 100 nM; FIG. 4a. As to the method:
In order to confirm the competition between the bispecific antibody according to the present invention and mPDGF-BB, the microtiter plate was coated with mPDGFR-β-Fc chimera as mentioned above and then blocked. The microtiter plate was treated with various concentrations of the bispecific antibody (0.06 nM-1 μM) with or without addition of mPDGF-BB (100 nM), and then incubated at 37° C. for 2 hours. The washing, incubation, and detection were performed in the same manner as the enzyme immunoassay described above.
A competition enzyme immunoassay was developed to examine the effect of mPDGF-BB on the binding ability of anti-mPDGFR-β x cotinine scFv-Cκ-scFv fusion protein. The serially diluted bispecific antibodies (anti-mPDGFR-β scFv-Cκ-cotinine scFv) were incubated on wells coated with mPDGFR-β-Fc chimeric fusion protein with or without mPDGF-BB. HRP-anti-human Cκ antibody was incubated and then TMB was added. […] However, the binding ability of PRb-CN01 was not inhibited, so it confirmed that PRb-CN01 binds to mPDGFR-β in a noncompetitive manner to mPDGF-BB.

Test [2] has as its system MOLT-4 cells. Briefly: Flow cytometry binding to MOLT-4 cells not expressing mPDGFR-β. The following applies: 100 nM; FIG. 6. As to the method:
The present inventors tested the binding ability of the bispecific antibody of scFv-Cκ-scFv fusion proteins in MOLT-4 cells not expressing mPDGFR-β by flow cytometry analysis. MOLT-4 cells were cultured with a bispecific antibody of scFv-Cκ-scFv fusion protein (100 nM) at 4° C. for 1 hour. After washing as described above, the detection was conducted by treating with an APC-anti human Cκ antibody. The MOLT-4 cells were purchased from the Korea Cell Line Bank and prepared by culturing in RPMI-1640 (Welgene, Seoul, Korea) medium added by 10% fetal bovine serum, 1% penicillin, and streptomycin.

In another test the test system is NIH3T3 cells. Briefly: Internalization analysis by confocal microscopy in NIH3T3 cells. Type of test: cell-based, mouse. The following applies: 10 μg/mL, 37° C., 30 minutes, FIG. 4c. The method, then: The bispecific antibody of scFv-Cκ-scFv fusion protein was analyzed with a confocal microscope for visualizing internalization. NIH3T3 cells were treated with the bispecific antibody of scFv-Cκ-scFv (10 μg/mL) diluted in DMEM containing 10% FBS, and internalized at 37° C. for 30 minutes. After washing the cells 3 times with cold PBS, acidic buffer (0.2 M acetic acid, 0.5 M sodium chloride) was treated at room temperature for 5 minutes to remove the antibody bound to the cell surface. Cells were washed twice with cold PBS, fixed with 4% paraformaldehyde for 10 minutes, and then subjected to immunofluorescence staining as previously described [J. M. Lim et al., J. Cell. Biol. 210 (2015) 23].
Briefly, to block antibodies having non-specific reaction, cells were incubated in PBS containing 5% horse serum and 0.1% Triton X-100 for 30 minutes, and 2 μg/mL FITC-anti human Cκ antibody (TB28-2, BD Biosciences) was added at room temperature for 30 minutes. To image the initial endosomes, the cells were washed 3 times with PBS, incubated with PBS containing 5% horse serum and 0.1% Triton X-100 for 30 minutes, and then incubated with ati-RabS antibody diluted to 1:200 (C8B1, Cell Signaling Technology, Danvers, MA, USA). Alexa Fluor 546 goat anti-rabbit IgG (A-11035, Invitrogen) was sequentially treated. Cells were treated with 0.2 μg/mL DAPI to detect DNA. Confocal microscopy images were obtained using a Zeiss LSM 880 microscope, and images were analyzed with Zen software (Carl Zeiss, Thornwood, NY, USA).
To measure the cellular internalization of the bispecific antibody of scFv-Cκ-scFv, anti-mPDGFR-β x cotinine scFv-Cκ-scFv fusion protein was incubated in NIH3T3 cells, and then treated with FITC-anti-human Cκ antibody and endosome-specific antibody. It was imaged using a confocal microscope. […] When the images were merged, the present inventors confirmed that the fluorescence of the three antibody clones and the endosome-specific antibody were co-localized.

B1: PRb-CN01: anti-mPDGFR-β chicken scFv clone (VH SEQ ID NO 7, VL SEQ ID NO 8), tested as scFv-Cκ-anti-cotinine scFv bispecific antibody (antibody, V domains shown)
VH: AVTLDESGGGLQTPGGALSLVCKASGFTFSDRAMHWVRQAPGKGLEWVGLITNTGGSTNYGAAVKGRATISRDNGQSTVRLQLNNLRAEDTGTYYCTRGVGSWAHGGRIDAWGHGTEVIVSS
VL: LTQPSSVSANPGETVKITCSGGSGSYGWFQQKSPGSAPVTVIYSNNQRPSDIPSRFSGSKSGSTNTLTITGVQAEDEAIYYCGTRDSSYVGIFGAGTTLTVL
modifications: VH of PRb-CN01; VL of PRb-CN01
Take B1: the “simultaneous binding to mPDGFR-β and cotinine” value in the test with mPDGFR-β and cotinine is “simultaneously bound to mPDGFR-β and cotinine”. In the test with neovascularization, the inhibition of neovascularization entry was “inhibited neovascularization in a concentration-dependent manner”. Also, the “toxicity in MOLT-4 cells compared to control antibody” value with MOLT-4 cells [1] is on record as “no difference in toxicity from the control antibody”. In addition, in the test with mPDGFR-β, the “binding ability to mPDGFR-β in the presence of mPDGF-BB” value is given as “not inhibited”. For the same molecule, the “binding to MOLT-4 cells” value in the test on MOLT-4 cells [2] is recorded as “neither PRb-CN01 nor the anti-HER2 bispecific antibody of scFv-Cκ-scFv fusion antibody binds”. In addition, the cellular internalization result with NIH3T3 cells is “Intracellular fluorescence was detected”.
